Target: α-amylase
Experiment: cell-based or functional assay

- α-amylase inhibition activity (colorimetric α-amylase inhibition assay): 2 fold
Substance: thioredoxin/90-mer ELP/tendamistat fusion protein (from UniProt P01092 31-104)
